# Data reported in publication PMC6250708, “Arabidopsis thaliana DGAT3 is a [2Fe-2S] protein involved in TAG biosynthesis” (Scientific Reports, 2018).
# Target: the molecule itself
# Test: SEC; Superdex 200 10/300 GL, 4 °C, 100 mM triethanolamine pH 7.5, 300 mM NaCl, 5% glycerol, 1% n-octyl-β-D-glucopyranoside, 1 mM TCEP; column calibrated with Bio-Rad gel filtration standard; oligomer size assumes a globular protein
protein,measurement,value
"Δ46AtDGAT3 (Arabidopsis thaliana acyl-CoA:diacylglycerol acyltransferase 3 lacking the putative chloroplast transit peptide) (domain or fragment, UniProt Q9C5W0 47-360, looked up, AtDGAT3 (At1g48300), Arabidopsis thaliana, 360-residue protein of the revised TAIR annotation (GenBank AEE32272); the 46 N-terminal residues (putative chloroplast transit peptide predicted by ChloroP 1.1) removed; calculated mass of the His-tagged protein 35.4 kDa; Cloned NdeI/XhoI into pET-32b(+), in frame with a C-terminal 6xHis tag; the NdeI site of the forward primer supplies a start …) CNNEFADKGHVNYYIEPTRCGEEKEKVKVMEKEKKALKKKAKVLKSLSKNLDMFSSIGFGLDPEAGLVGEIQTKTISEATEILVKQLEQLKAEEKILKKQRKEEKAKAKAMKKMTEMDSESSSSSESSDSDCDKGKVVDMSSLRNKAKPVLEPLQPEATVATLPRIQEDAISCKNTSEALQIALQTSTIFPSMANPGQTLKTVEAVSVVGLPLNRVEVCMGGKCKRSGGALLLDEFQRAMTGFEGSAVACKCMGKCRDGPNVRVVKETDAVMTDSVRTPSKTLCVGVGLQDVETIVTSFFDEECSREGLGSVSY",stoichiometry N,3
